Residue numbers refer to the chain shown, from its start.
T1: wildtype human HMGCS1 (3-hydroxy-3-methylglutaryl-coenzyme A synthase) (human), Q01581
T1 chain: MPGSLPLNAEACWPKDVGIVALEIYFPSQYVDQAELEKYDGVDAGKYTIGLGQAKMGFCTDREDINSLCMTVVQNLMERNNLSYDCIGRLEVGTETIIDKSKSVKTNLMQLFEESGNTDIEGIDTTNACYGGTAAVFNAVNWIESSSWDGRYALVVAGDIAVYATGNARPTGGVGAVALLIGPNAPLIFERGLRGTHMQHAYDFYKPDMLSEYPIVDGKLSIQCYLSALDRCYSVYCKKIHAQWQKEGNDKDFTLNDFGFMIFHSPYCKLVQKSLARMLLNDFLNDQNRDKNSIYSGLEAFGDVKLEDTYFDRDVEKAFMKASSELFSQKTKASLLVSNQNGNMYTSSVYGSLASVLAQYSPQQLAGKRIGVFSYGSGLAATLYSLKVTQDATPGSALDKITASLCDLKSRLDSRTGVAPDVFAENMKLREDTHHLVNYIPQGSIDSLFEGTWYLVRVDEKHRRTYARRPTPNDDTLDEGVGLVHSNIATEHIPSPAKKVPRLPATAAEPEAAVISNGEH

B1: wildtype human HMGCS1 (3-hydroxy-3-methylglutaryl-coenzyme A synthase), Q01581 1-520 (enzyme)
chain: T1 chain
B2: human HMGCS1 p.Ser447Pro (enzyme, UniProt Q01581 1-520, looked up)
chain: T1 chain with S447P
B3: human HMGCS1 p.Gln29Leu (enzyme, UniProt Q01581 1-520, looked up)
chain: T1 chain with Q29L
B4: human HMGCS1 p.Met70Thr (enzyme, UniProt Q01581 1-520, looked up)
chain: T1 chain with M70T
B5: human HMGCS1 p.Cys268Ser (enzyme, UniProt Q01581 1-520, looked up)
chain: T1 chain with C268S

Columns and labels:
[1] = target: T1, wildtype human HMGCS1 …; assay: SEC; details: remark: other sources report otherwise
[2] = target: the molecule itself; assay: SEC

| Binder | stoichiometry N [1] | stoichiometry N [2] |
| --- | --- | --- |
| B1 | 2 | – |
| B2 | – | 2 |
| B3 | – | 2 |
| B4 | – | 2 |
| B5 | – | 2 |

From article doi:10.1101/2023.10.25.23297129 (medRxiv, 2023)
